According to patent US20120301468A1 (Bayer, published 2012):

B1: 1aa1 Fab (Fab, V domains shown)
VH: ELVQSGAEVKKPGASVKVSCKASGYTFTTNYMHWVRQAPGQGLEWMGIINPHNGSTSYAQKFQGRVTMTRDTSISTAYMELSSLRSEDTAVYYCARGRYFLMDVWGQGTLVTVSS
VL: DIQMTQSPSSLSASVGDRVTITCRASQNILSYLNWYQQKPGKAPKLLIYAASSLQSGVPSRFSGSGSGTDFTLTISSLQPEDFAVYYCQQYGSVPTFGQGTKVEIK
notes: Only CDRs are tied to the name
B2: 1aa1 immunoconjugate (antibody, human IgG1, V domains shown)
VH: QVELVQSGAEVKKPGASVKVSCKASGYTFTTNYMHWVRQAPGQGLEWMGIINPHNGSTSYAQKFQGRVTMTRDTSISTAYMELSSLRSEDTAVYYCARGRYFLMDVWGQGTLVTVSS
VL: B1 VL
modifications: A cytotoxic drug (MMAE by paragraph 261) is conjugated to the IgG1. The chain and residues of attachment are not stated, and the letters do not carry the drug.
notes: Human IgG1 1aa1 conjugated to a cytotoxic drug; Only CDRs are tied to the name
B3: 1aa1 full-length human IgG1 (antibody, V domains shown)
VH: B2 VH
VL: B1 VL
notes: Full-length human IgG1 made from the Fab; Only CDRs are tied to the name
B4: 3bb2 Fab (Fab, V domains shown)
VH: ELVESGGGLVQPGGSLRLSCAASGFTFSNYGISWVRQAPGKGLEWVSAISYYGSNTYYADSVKGRFTISRDNSKNTLYLQMNSLRAEDTAVYYCARLKGGSGFVWGQGTLVTVSS
VL: DIVMTQSPLSLPVTPGEPASISCRSSQSLVYSNGNTTLSWYLQKPGQSPQLLIYGVSNRASGVPDRFSGSGSGTDFTLKISRVEAEDVGVYYCQQYNSFPRTFGQGTKVEIK
notes: as for B1
B5: 3ef2 Fab (Fab, V domains shown)
VH: ELVESGGGLVQPGGSLRLSCAASGFTFSSYGMHWVRQAPGKGLEYVSAISYSSSSTSYADSVKGRFTISRDNSKNTLYLQMNSLRAEDTAVYYCARLSYTGFAVWGQGTLVTVSS
VL: DIELTQPPSVSVAPGQTARISCSGDNLGSYYVHWYQQKPGQAPVLVIYDDNNRPSGIPERFSGSNSGNTATLTISGTQAEDEADYYCQSYDFGKVVFGGGTKLTVL
notes: as for B1
B6: 1e4 Fab (Fab, V domains shown)
VH: ELVESGGGLVQPGGSLRLSCAASGFTFSNNAMNWVRQAPGKGLEWVSGISYDSSKTYYADSVKGRFTISRDNSKNTLYLQMNSLRAEDTAVYYCARLTYTGAYRWGQGTLVTVSS
VL: B5 VL
notes: as for B1
B7: 1e4 full-length human IgG1 (antibody, V domains shown)
VH: B6 VH
VL: B5 VL
notes: Full-length human IgG1 made from the Fab (IgG1 constant region PIR J00228); Only CDRs are tied to the name; also called monoclonal IgG1 1e4; anti-MN antibody 1e4
B8: 3ef2 full-length human IgG1 (antibody, V domains shown)
VH: QVELVESGGGLVQPGGSLRLSCAASGFTFSSYGMHWVRQAPGKGLEYVSAISYSSSSTSYADSVKGRFTISRDNSKNTLYLQMNSLRAEDTAVYYCARLSYTGFAVWGQGTLVTVSS
VL: B5 VL
notes: as for B3
B9: 3ee9 Fab (Fab, V domains shown)
VH: ELVESGGGLVQPGGSLRLSCAASGFTFSSYGMSWVRQAPGKGLEWVSGISSLGSTTYYADSVKGRFTISRDNSKNTLYLQMNSLRAEDTAVYYCARTGSPGTFMHGDHWGQGTLVTVSS
VL: DIQMTQSPSSLSASVGDRVTITCRASQDINNYLSWYQQKPGKAPKLLIYGASNLQSGVPSRFSGSGSGTDFTLTISSLQPEDFAVYYCQQYYGRPTTFGQGTKVEIK
notes: only the CDRs are tied
B10: 5aa3 full-length human IgG1 (antibody, V domains shown)
VH: QVELVQSGAEVKKPGESLKISCKGSGYSFTGYISWVRQAPGKGLEWMGIIYPGDSYTNYSPSFQGQVTISADKSISTAYLQWSSLKASDTAMYYCARYSGPNWDVMDSWGQGTLVTVSS
VL: DIVLTQPPSVSGAPGQRVTISCSGSSSNIGSYYVNWYQQLPGTAPKLLIYADDKRPSGVPDRFSGSKSGTSASLAITGLQSEDEADYYCQSYDSTKDDSVFGGGTKLTVL
notes: as for B3
B11: 3ee9/MMAE (3ee9 human IgG1 conjugated to monomethylauristatin E) (antibody, V domains shown)
VH: QVELVESGGGLVQPGGSLRLSCAASGFTFSSYGMSWVRQAPGKGLEWVSGISSLGSTTYYADSVKGRFTISRDNSKNTLYLQMNSLRAEDTAVYYCARTGSPGTFMHGDHWGQGTLVTVSS
VL: DIQMTQSPSSLSASVGDRVTITCRASQDINNYLSWYQQKPGKAPKLLIYGASNLQSGVPSRFSGSGSGTDFTLTISSLQPEDFAVYYCQQYYGRPTTFGQGTKVEIKR
modifications: Monomethylauristatin E (MMAE) is conjugated to the antibody through a linker (FIG. 9). The chain and residues of attachment are not stated, and the letters do not carry the drug.
notes: Only CDRs are tied to the name; also called BAY 79-4620; 3ee9-IC
B12: 3ee9 full-length human IgG1 (antibody, V domains shown)
VH: B11 VH
VL: B11 VL
notes: Only CDRs are tied to the name; also called unconjugated antibody 3ee9; antibody portion of 3ee9/MMAE
B13: 3ab4 Fab (Fab, V domains shown)
VH: ELVESGGGLVQPGGSLRLSCAASGFTFSSYGISWVRQAPGKGLEWVSGISYSGSSTYYADSVKGRFTISRDNSKNTLYLQMNSLRAEDTAVYYCARLKPYRHKNGWFDYWGQGTLVTVSS
VL: DIQMTQSPSSLSASVGDRVTITCRASQNISNYLNWYQQKPGKAPKLLIHKVSNLQSGVPSRFSGSGSGTDFTLTISSLQPEDFAVYYCLQYDDFPRTFGQGTKVEIK
notes: as for B1
B14: 3ah10 Fab (Fab, V domains shown)
VH: ELVESGGGLVQPGGSLRLSCAASGFTFSSYGISWVRQAPGKGLEWVSSISYSGSNTYYADSVKGRFTISRDNSKNTLYLQMNSLRAEDTAVYYCARMKPMRGYSGAVWGQGTLVTVSS
VL: DIQMTQSPSSLSASVGDRVTITCRASQDISNRLAWYQQKPGKAPKLLIYDANSLQSGVPSRFSGSGSGTDFTLTISSLQPEDFATYYCFQYSGPTFGQGTKVEIK
notes: as for B1
B15: 5a6 Fab (Fab, V domains shown)
VH: ELVQSGAEVKKPGESLKISCKGSGYSFSKYWIGWVRQMPGKGLEWMGIIYPTDSYTRYSPSFQGQVTISADKSISTAYLQWSSLKASDTAMYYCARTHGYYKNGRMDVWGQGTLVTVSS
VL: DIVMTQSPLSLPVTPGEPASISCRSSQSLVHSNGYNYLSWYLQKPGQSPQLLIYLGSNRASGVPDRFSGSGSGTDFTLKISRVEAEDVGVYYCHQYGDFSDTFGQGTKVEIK
notes: as for B1

Tests used:
[1] = biological target: T1, human MN protein, entire extra-cellular domain with a C-terminal histag, expressed in HKB-11 cells (human, UniProt Q16790 38-414); test: BIAcore surface plasmon resonance; Fab captured on immobilized anti-human-Fab IgG, purified human MN (HKB-11) as analyte; 1:1 Langmuir fit
[2] = biological target: T2, MN protein on the surface of MN-expressing (MN+) cells (PC3 mm2, MaTu) (human, UniProt Q16790 38-459); test: FACS on PC3mm2 (MN+) cells with DLD (MN-) cells as negative cells; traces not labelled on the sheet
[3] = biological target: T1, human MN protein, entire extra-cellular …; test: SPR, BIAcore 3000, IgG captured by anti-human IgG Fc, MN as analyte, 1:1 Langmuir fit
[4] = biological target: T1, human MN protein, entire extra-cellular …; test: BIAcore surface plasmon resonance; IgG captured on immobilized goat anti-human IgG Fc, purified human MN (HKB-11) as analyte; 1:1 Langmuir fit
[5] = biological target: T1, human MN protein, entire extra-cellular …; test: Biacore (SPR), purified MN protein
[6] = biological target: T2, MN protein on the surface of …; test: cell-based or functional assay
[7] = biological target: T1, human MN protein, entire extra-cellular …; test: Biacore (SPR), purified MN protein; remark: listed apart in the source

Binder | Kd [1] [nM] | Kd [3] [nM] | other results
B1 | 0.15 | – | –
B2 | – | – | binding result [2]: binds
B3 | – | 27 | Kd [4]: 49 nM
B4 | 27 | – | –
B5 | 4.1 | – | –
B6 | 1.4 | – | –
B7 | – | 5 | Kd [4]: 1 nM
B8 | – | 6 | –
B9 | 16 | – | –
B10 | – | 1 | –
B11 | – | – | Kd [5]: 3.6 nM; Cytotoxicity: MN+/MN- (ec50) [6]: 50 nM
B12 | – | 4 | Kd [4]: 5.9 nM; Kd [7]: 3.6 nM
B13 | 50 | – | –
B14 | 16 | – | –
B15 | 3.4 | – | –
